In the assay the test system is HEK293FT cells transfected with TF library. Description: Screening of TF condensates based on fluorescent puncta. The settings on record: Figure 1B numerical data; TF library screen, one value per transcriptional factor. Format: cell-based. The procedure, abridged:
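Puncta scoring used automated confocal imaging of fifty random fields per well, after anti-Flag or anti-GAL4 immunofluorescence (Alexa 488) in PFA-fixed cells. HEK293FT cells carried TF library plasmids delivered with PEI (1.6 μg/ml DNA). At 60 h they were switched for 12 h to glucose-containing or glucose-free medium.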

B1: ZFP144 (protein, UniProt P35227 1-344, looked up)
Polycomb group RING finger …: MHRTTRIKITELNPHLMCALCGGYFIDATTIVECLHSFCKTCIVRYLETNKYCPMCDVQVHKTRPLLSIRSDKTLQDIVYKLVPGLFKDEMKRRRDFYAAYPLTEVPNGSNEDRGEVLEQEKGALSDDEIVSLSIEFYEGARDRDEKKGPLENGDGDKEKTGVRFLRCPAAMTVMHLAKFLRNKMDVPSKYKVEVLYEDEPLKEYYTLMDIAYIYPWRRNGPLPLKYRVQPACKRLTLATVPTPSEGTNTSGASECESVSDKAPSPATLPATSSSLPSPATPSHGSPSSHGPPATHPTSPTPPSTASGATTAANGGSLNCLQTPSSTSRGRKMTVNGAPVPPLT
Regarding B1, the “Z score of condensed fraction” value worked out at 0.0768.

B2: ZFP296 (protein, UniProt Q8WUU4 1-475, looked up)
Zinc finger protein 296: MSRRKAGSAPRRVEPAPAANPDDEMEMQDLVIELKPEPDAQPQQAPRLGPFSPKEVSSAGRFGGEPHHSPGPMPAGAALLALGPRNPWTLWTPLTPNYPDRQPWTDKHPDLLTCGRCLQTFPLEAITAFMDHKKLGCQLFRGPSRGQGSEREELKALSCLRCGKQFTVAWKLLRHAQWDHGLSIYQTESEAPEAPLLGLAEVAAAVSAVVGPAAEAKSPRASGSGLTRRSPTCPVCKKTLSSFSNLKVHMRSHTGERPYACDQCPYACAQSSKLNRHKKTHRQVPPQSPLMADTSQEQASAAPPEPAVHAAAPTSTLPCSGGEGAGAAATAGVQEPGAPGSGAQAGPGGDTWGAITTEQRTDPANSQKASPKKMPKSGGKSRGPGGSCEFCGKHFTNSSNLTVHRRSHTGERPYTCEFCNYACAQSSKLNRHRRMHGMTPGSTRFECPHCHVPFGLRATLDKHLRQKHPEAAGEA
As to B2, the “Z score of condensed fraction” value amounted to 0.8818.

B3: ZFP36L1 (protein, UniProt P23950 1-338, looked up)
mRNA decay activator protein …: MTTTLVSATIFDLSEVLCKGNKMLNYSTPSAGGCLLDRKAVGTPAGGGFPRRHSVTLPSSKFHQNQLLSSLKGEPAPSLSSRDSRFRDRSFSEGGERLLPTQKQPGSGQVNSSRYKTELCRPFEENGACKYGDKCQFAHGIHELRSLTRHPKYKTELCRTFHTIGFCPYGPRCHFIHNAEERRALAGGRDLSADRPRLQHSFSFAGFPSAAATAAATGLLDSPTSITPPPILSADDLLGSPTLPDGTNNPFAFSSQELASLFAPSMGLPGGGSPTTFLFRPMSESPHMFDSPPSPQDSLSDHEGYLSSSSSSHSGSDSPTLDNSRRLPIFSRLSISDD
In the case of B3, the “Z score of condensed fraction” value was found to be 0.2477.

B4: CALR (protein, UniProt P27797 18-417, looked up)
Calreticulin: EPAVYFKEQFLDGDGWTSRWIESKHKSDFGKFVLSSGKFYGDEEKDKGLQTSQDARFYALSASFEPFSNKGQTLVVQFTVKHEQNIDCGGGYVKLFPNSLDQTDMHGDSEYNIMFGPDICGPGTKKVHVIFNYKGKNVLINKDIRCKDDEFTHLYTLIVRPDNTYEVKIDNSQVESGSLEDDWDFLPPKKIKDPDASKPEDWDERAKIDDPTDSKPEDWDKPEHIPDPDAKKPEDWDEEMDGEWEPPVIQNPEYKGEWKPRQIDNPDYKGTWIHPEIDNPEYSPDPSIYAYDNFGVLGLDLWQVKSGTIFDNFLITNDEAYAEEFGNETWGVTKAAEKQMKDKQDEEQRLKEEEEDKKRKEEEEAEDKEDDEDKDEDEEDEEDKEEDEEEDVPGQAKDEL
Regarding B4, the “Z score of condensed fraction” value stood at 1.22.

B5: ZFP67 (protein, UniProt O15156 1-539, looked up)
Zinc finger and BTB …: MGSPEDDLIGIPFPDHSSELLSCLNEQRQLGHLCDLTIRTQGLEYRTHRAVLAACSHYFKKLFTEGGGGAVMGAGGSGTATGGAGAGVCELDFVGPEALGALLEFAYTATLTTSSANMPAVLQAARLLEIPCVIAACMEILQGSGLEAPSPDEDDCERARQYLEAFATATASGVPNGEDSPPQVPLPPPPPPPPRPVARRSRKPRKAFLQTKGARANHLVPEVPTVPAHPLTYEEEEVAGRVGSSGGSGPGDSYSPPTGTASPPEGPQSYEPYEGEEEEEELVYPPAYGLAQGGGPPLSPEELGSDEDAIDPDLMAYLSSLHQDNLAPGLDSQDKLVRKRRSQMPQECPVCHKIIHGAGKLPRHMRTHTGEKPFACEVCGVRFTRNDKLKIHMRKHTGERPYSCPHCPARFLHSYDLKNHMHLHTGDRPYECHLCHKAFAKEDHLQRHLKGQNCLEVRTRRRRKDDAPPHYPPPSTAAASPAGLDLSNGHLDTFRLSLARFWEQSAPTGPPVSTPGPPDDDEEEGAPTTPQAEGAMESS
On to B5, for which the “Z score of condensed fraction” value turned out to be 0.1735.

B6: CALCOCO1 (protein, UniProt Q9P1Z2 1-691, looked up)
Calcium-binding and …: MEESPLSRAPSRGGVNFLNVARTYIPNTKVECHYTLPPGTMPSASDWIGIFKVEAACVRDYHTFVWSSVPESTTDGSPIHTSVQFQASYLPKPGAQLYQFRYVNRQGQVCGQSPPFQFREPRPMDELVTLEEADGGSDILLVVPKATVLQNQLDESQQERNDLMQLKLQLEGQVTELRSRVQELERALATARQEHTELMEQYKGISRSHGEITEERDILSRQQGDHVARILELEDDIQTISEKVLTKEVELDRLRDTVKALTREQEKLLGQLKEVQADKEQSEAELQVAQQENHHLNLDLKEAKSWQEEQSAQAQRLKDKVAQMKDTLGQAQQRVAELEPLKEQLRGAQELAASSQQKATLLGEELASAAAARDRTIAELHRSRLEVAEVNGRLAELGLHLKEEKCQWSKERAGLLQSVEAEKDKILKLSAEILRLEKAVQEERTQNQVFKTELAREKDSSLVQLSESKRELTELRSALRVLQKEKEQLQEEKQELLEYMRKLEARLEKVADEKWNEDATTEDEEAAVGLSCPAALTDSEDESPEDMRLPPYGLCERGDPGSSPAGPREASPLVVISQPAPISPHLSGPAEDSSSDSEAEDEKSVLMAAVQSGGEEANLLLPELGSAFYDMASGFTVGTLSETSTGGPATPTWKECPICKERFPAESDKDALEDHMDGHFFFSTQDPFTFE
Take B6: the “Z score of condensed fraction” value is listed as 0.2225.

B7: ZGLP1 (protein, UniProt P0C6A0 1-273, looked up)
GATA-type zinc finger protein …: MEAEPIPDSSMPAKLLAPPCLNLERLGGSPSQEKPRTPGCCRISERSLWPACQESVTALCFLQETVERLGQSPAQDTPVLGPCWDPMALGTQGRLLLDRDSKDTQTRISQKGRRLQPPGTPSAPPQRRPRKQLNPCRGTERVDPGFEGVTLKFQIKPDSSLQIIPTYSLPCSSRSQESPADAVGGPAAHPGGTEAHSAGSEALEPRRCASCRTQRTPLWRDAEDGTPLCNACGIRYKKYGTRCSSCWLVPRKNVQPKRLCGRCGVSLDPIQEG
For B7, the “Z score of condensed fraction” value is -0.7375.

B8: ZFAT (protein, UniProt Q9P243 1-1243, looked up)
Zinc finger protein ZFAT: METRAAENTAIFMCKCCNLFSPNQSELLSHVSEKHMEEGVNVDEIIIPLRPLSTPEPPNSSKTGDEFLVMKRKRGRPKGSTKKSSTEEELAENIVSPTEDSPLAPEEGNSLPPSSLECSKCCRKFSNTRQLRKHICIIVLNLGEEEGEAGNESDLELEKKCKEDDREKASKRPRSQKTEKVQKISGKEARQLSGAKKPIISVVLTAHEAIPGATKIVPVEAGPPETGATNSETTSADLVPRRGYQEYAIQQTPYEQPMKSSRLGPTQLKIFTCEYCNKVFKFKHSLQAHLRIHTNEKPYKCPQCSYASAIKANLNVHLRKHTGEKFACDYCSFTCLSKGHLKVHIERVHKKIKQHCRFCKKKYSDVKNLIKHIRDAHDPQDKKVKEALDELCLMTREGKRQLLYDCHICERKFKNELDRDRHMLVHGDKWPFACELCGHGATKYQALELHVRKHPFVYVCAVCRKKFVSSIRLRTHIKEVHGAAQEALVFTSSINQSFCLLEPGGDIQQEALGDQLQLVEEEFALQGVNALKEEACPGDTQLEEGRKEPEAPGEMPAPAVHLASPQAESTALPPCELETTVVSSSDLHSQEVVSDDFLLKNDTSSAEAHAAPEKPPDMQHRSSVQTQGEVITLLLSKAQSAGSDQESHGAQSPLGEGQNMAVLSAGDPDPSRCLRSNPAEASDLLPPVAGGGDTITHQPDSCKAAPEHRSGITAFMKVLNSLQKKQMNTSLCERIRKVYGDLECEYCGKLFWYQVHFDMHVRTHTREHLYYCSQCHYSSITKNCLKRHVIQKHSNILLKCPTDGCDYSTPDKYKLQAHLKVHTALDKRSYSCPVCEKSFSEDRLIKSHIKTNHPEVSMSTISEVLGRRVQLKGLIGKRAMKCPYCDFYFMKNGSDLQRHIWAHEGVKPFKCSLCEYATRSKSNLKAHMNRHSTEKTHLCDMCGKKFKSKGTLKSHKLLHTADGKQFKCTVCDYTAAQKPQLLRHMEQHVSFKPFRCAHCHYSCNISGSLKRHYNRKHPNEEYANVGTGELAAEVLIQQGGLKCPVCSFVYGTKWEFNRHLKNKHGLKVVEIDGDPKWETATEAPEEPSTQYLHITEAEEDVQGTQAAVAALQDLRYTSESGDRLDPTAVNILQQIIELGAETHDATALASVVAMAPGTVTVVKQVTEEEPSSNHTVMIQETVQQASVELAEQHHLVVSSDDVEGIETVTVYTQGGEASEFIVYVQEAMQPVEEQAVEQPAQEL
On to B8, for which the “Z score of condensed fraction” value is listed as -0.7456.

B9: ZFY (protein, UniProt P08048 1-801, looked up)
Zinc finger Y-chromosomal …: MDEDEFELQPQEPNSFFDGIGADATHMDGDQIVVEIQEAVFVSNIVDSDITVHNFVPDDPDSVVIQDVVEDVVIEEDVQCSDILEEADVSENVIIPEQVLDSDVTEEVSLPHCTVPDDVLASDITSTSMSMPEHVLTSESMHVCDIGHVEHMVHDSVVEAEIITDPLTSDIVSEEVLVADCAPEAVIDASGISVDQQDNDKASCEDYLMISLDDAGKIEHDGSTGVTIDAESEMDPCKVDSTCPEVIKVYIFKADPGEDDLGGTVDIVESEPENDHGVELLDQNSSIRVPREKMVYMTVNDSQQEDEDLNVAEIADEVYMEVIVGEEDAAVAAAAAAVHEQQIDEDEMKTFVPIAWAAAYGNNSDGIENRNGTASALLHIDESAGLGRLAKQKPKKKRRPDSRQYQTAIIIGPDGHPLTVYPCMICGKKFKSRGFLKRHMKNHPEHLAKKKYHCTDCDYTTNKKISLHNHLESHKLTSKAEKAIECDECGKHFSHAGALFTHKMVHKEKGANKMHKCKFCEYETAEQGLLNRHLLAVHSKNFPHICVECGKGFRHPSELRKHMRIHTGEKPYQCQYCEYRSADSSNLKTHIKTKHSKEMPFKCDICLLTFSDTKEVQQHTLVHQESKTHQCLHCDHKSSNSSDLKRHVISVHTKDYPHKCEMCEKGFHRPSELKKHVAVHKGKKMHQCRHCDFKIADPFVLSRHILSVHTKDLPFRCKRCRKGFRQQNELKKHMKTHSGRKVYQCEYCEYSTTDASGFKRHVISIHTKDYPHRCEYCKKGFRRPSEKNQHIMRHHKEVGLP
Consider B9, for which the “Z score of condensed fraction” value is -1.019.

B10: ZIC3 (protein, UniProt O60481 1-467, looked up)
Zinc finger protein ZIC 3: MTMLLDGGPQFPGLGVGSFGAPRHHEMPNREPAGMGLNPFGDSTHAAAAAAAAAAFKLSPAAAHDLSSGQSSAFTPQGSGYANALGHHHHHHHHHHHTSQVPSYGGAASAAFNSTREFLFRQRSSGLSEAASGGGQHGLFAGSASSLHAPAGIPEPPSYLLFPGLHEQGAGHPSPTGHVDNNQVHLGLRGELFGRADPYRPVASPRTDPYAAGAQFPNYSPMNMNMGVNVAAHHGPGAFFRYMRQPIKQELSCKWIDEAQLSRPKKSCDRTFSTMHELVTHVTMEHVGGPEQNNHVCYWEECPREGKSFKAKYKLVNHIRVHTGEKPFPCPFPGCGKIFARSENLKIHKRTHTGEKPFKCEFEGCDRRFANSSDRKKHMHVHTSDKPYICKVCDKSYTHPSSLRKHMKVHESQGSDSSPAASSGYESSTPPAIASANSKDTTKTPSAVQTSTSHNPGLPPNFNEWYV
Regarding B10, the “Z score of condensed fraction” value was -0.3091.

The record behind these values is PMC11574045, “A cofactor-induced repressive type of transcription factor condensation can be induced by synthetic peptides to suppress tumorigenesis” (The EMBO Journal, 2024).
